From PMC5946489, “Inactivation of the tight junction gene CLDN11 by aberrant hypermethylation modulates tubulins polymerization and promotes cell migration in nasopharyngeal carcinoma” come the findings set out here.

The target of this data set is GST-GATA1 (UniProt P15976 1-413). The data set can be described thus: EMSA; GATA1 antibody used for supershift; Pull-down: probes immobilised on M-280 beads in 5 mM Tris-HCl pH 7.5, 0.5 mM EDTA, 1 M NaCl; 100 ug nuclear extract; washes in binding buffer (composition not given) with 0.5% NP40. EMSA as described previously (ref. 9); temperature not stated. To be noted: protein: commercial; tags: GST; label: 5'-biotin; blunt.
Sequence of GST-GATA1 (P15976 whole entry): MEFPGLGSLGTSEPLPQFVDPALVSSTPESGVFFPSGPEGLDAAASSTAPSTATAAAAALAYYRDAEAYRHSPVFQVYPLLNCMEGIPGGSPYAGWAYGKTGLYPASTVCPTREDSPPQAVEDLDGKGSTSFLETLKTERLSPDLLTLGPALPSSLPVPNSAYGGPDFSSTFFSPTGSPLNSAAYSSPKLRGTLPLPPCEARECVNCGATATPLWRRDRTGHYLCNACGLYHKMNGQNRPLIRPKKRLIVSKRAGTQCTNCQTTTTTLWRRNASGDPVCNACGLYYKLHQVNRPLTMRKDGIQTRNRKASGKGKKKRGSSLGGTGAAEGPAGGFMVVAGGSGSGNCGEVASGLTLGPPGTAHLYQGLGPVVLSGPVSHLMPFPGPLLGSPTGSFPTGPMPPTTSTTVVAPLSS

B1: GATA1/2 WT probe (dsDNA)
DNA 1: CTGCCGCCGATTGGTGCTCGC
DNA 2: GCGAGCACCAATCGGCGGCAG
On to B1, for which the binding result is given as “binds”.
